Measured values from patent US20240131162A1 (MacroGenics, published 2024).
Numbering of substitutions follows the chain as printed. Names and notes keep the numbering of the source.

B1: ch4D5-wild-type Fc (antibody, human IgG1, kappa)
heavy: not shown
light: DIVMTQSHKFMSTSVGDRVSITCKASQDVNTAVAWYQQKPGHSPKLLIYSASFRYTGVPDRFTGSRSGTDFTFTISSVQAEDLAVYYCQQHYTTPPTFGGGTKVEIKRTVAAPSVFIFPPSDEQLKSGTASVVCLLNNFYPREAKVQWKVDNALQSGNSQESVTEQDSKDSTYSLSSTLTLSKADYEKHKVYACEVTHQGLSSPVTKSFNRGEC
notes: Chimeric 4D5; also called ch4D5-FcWT; WT
B2: Fc mutant 12: F243L R292P Y300L (other, UniProt P01857-1 104-330, looked up)
chain: DKTHTCPPCPAPELLGGPSVFLLPPKPKDTLMISRTPEVTCVVVDVSHEDPEVKFNWYVDGVEVHNAKTKPPEEQYNSTLRVVSVLTVLHQDWLNGKEYKCKVSNKALPAPIEKTISKAKGQPREPQVYTLPPSRDELTKNQVSLTCLVKGFYPSDIAVEWESNGQPENNYKTTPPVLDSDGSFFLYSKLTVDKSRWQQGNVFSCSVMHEALHNHYTQKSLSLSPGK
notes: domain: Fc
B3: Fc mutant 13: F243L R292P V305I (other, UniProt P01857-1 104-330, looked up)
chain: B2 chain with L80Y, V85I
notes: domain: Fc
B4: Fc mutant 15: R292P V305I P396L (other, UniProt P01857-1 104-330, looked up)
chain: B2 chain with L23F, L80Y, V85I, P176L
notes: domain: Fc
B5: Fc mutant 16: F243L R292P Y300L P396L (other, UniProt P01857-1 104-330, looked up)
chain: B2 chain with P176L
notes: domain: Fc
B6: Fc mutant 17: F243L R292P V305I P396L (other, UniProt P01857-1 104-330, looked up)
chain: B2 chain with L80Y, V85I, P176L
notes: domain: Fc
B7: Fc mutant 18: F243L R292P Y300L V305I P396L (other, UniProt P01857-1 104-330, looked up)
chain: B2 chain with V85I, P176L
notes: domain: Fc; Same substitutions as the Fc of ch4D5-FcMT1
B8: ch4D5-FcMT1 (antibody, human IgG1, kappa)
heavy: QVQLQQSGPELVKPGASLKLSCTASGFNIKDTYIHWVKQRPEQGLEWIGRIYPTNGYTRYDPKFQDKATITADTSSNTAYLQVSRLTSEDTAVYYCSRWGGDGFYAMDYWGQGASVTVSSASTKGPSVFPLAPSSKSTSGGTAALGCLVKDYFPEPVTVSWNSGALTSGVHTFPAVLQSSGLYSLSSVVTVPSSSLGTQTYICNVNHKPSNTKVDKRVEPKSCDKTHTCPPCPAPELLGGPSVFLLPPKPKDTLMISRTPEVTCVVVDVSHEDPEVKFNWYVDGVEVHNAKTKPPEEQYNSTLRVVSILTVLHQDWLNGKEYKCKVSNKALPAPIEKTISKAKGQPREPQVYTLPPSRDELTKNQVSLTCLVKGFYPSDIAVEWESNGQPENNYKTTPLVLDSDGSFFLYSKLTVDKSRWQQGNVFSCSVMHEALHNHYTQKSLSLSPGK
light: B1 light

target: T1, HER-2 (human, UniProt P04626 23-652, limits assumed); test: SPR (BIAcore), HER-2 immobilised, antibody as analyte
T1 construct: also called HER2/neu; erbB-2
Protocol: The kinetic parameters of the binding of eluted and purified antibodies were analyzed using a BIACORE® assay (BIAcore instrument 1000, BIAcore Inc., Piscataway, N.J.) and associated software. HER-2 was immobilized on one of the four flow cells (flow cell 2) of a sensor chip surface through amine coupling chemistry (by modification of carboxymethyl groups with mixture of NHS/EDC) such that about 1000 response units (RU) of receptor was immobilized on the surface. Following this, the unreacted active esters were “capped off” with an injection of 1 M Et-NH2.

Binder | koff | kon
B1 | ~3.2e-07 s⁻¹ | 170000 M⁻¹ s⁻¹

target: T2, CD32B (FcγRII-B) (UniProt P31994 43-217, limits assumed); test: SPR (BIAcore), koff compared with wild-type Fc
T2 sequence (looked up): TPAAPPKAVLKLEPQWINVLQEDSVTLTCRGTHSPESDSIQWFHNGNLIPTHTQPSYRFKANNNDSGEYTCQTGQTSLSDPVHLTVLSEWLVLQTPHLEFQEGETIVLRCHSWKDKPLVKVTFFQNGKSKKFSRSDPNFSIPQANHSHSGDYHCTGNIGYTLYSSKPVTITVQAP

Binder | WT koff/mutant koff
B2 | 0.6 ratio
B3 | 0.1 ratio
B4 | 0.9 ratio
B5 | 1.1 ratio
B6 | 0.4 ratio
B7 | 1.4 ratio

target: T3, CD32A^H (UniProt P12318 34-217, limits assumed); test: SPR (BIAcore), koff compared with wild-type Fc
T3 construct: also called FcγRIIA
T3 sequence (looked up): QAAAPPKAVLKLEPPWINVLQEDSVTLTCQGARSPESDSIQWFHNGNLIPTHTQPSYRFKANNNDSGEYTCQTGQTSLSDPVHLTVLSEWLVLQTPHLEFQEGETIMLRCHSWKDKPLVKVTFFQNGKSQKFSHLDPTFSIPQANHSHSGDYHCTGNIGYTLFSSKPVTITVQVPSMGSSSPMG

Binder | WT koff/mutant koff
B2 | 1 ratio
B3 | 0.2 ratio
B4 | 1.5 ratio
B5 | 1.7 ratio
B6 | 0.8 ratio
B7 | 3.2 ratio

target: T4, CD16A F158 (human, UniProt P08637 17-208, limits assumed); test: SPR (BIAcore), koff compared with wild-type Fc
T4 construct: construct not described
T4 sequence (P08637 17-208 limits assumed): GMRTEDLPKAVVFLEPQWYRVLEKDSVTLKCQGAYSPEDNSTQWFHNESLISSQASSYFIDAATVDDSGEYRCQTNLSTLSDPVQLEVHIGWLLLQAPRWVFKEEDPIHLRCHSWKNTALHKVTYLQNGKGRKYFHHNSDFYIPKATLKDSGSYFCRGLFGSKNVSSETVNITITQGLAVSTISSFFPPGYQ

Binder | WT koff/mutant koff
B2 | 4.6 ratio
B3 | 1.4 ratio
B4 | 1.9 ratio
B5 | 5.6 ratio
B6 | 2.3 ratio
B7 | 8.3 ratio

target: T5, CD16A V158 (human, UniProt P08637 17-208, limits assumed); test: SPR (BIAcore), koff compared with wild-type Fc
T5 construct: construct not described
T5 sequence (P08637 17-208 F176V limits assumed): as the sequence (P08637 17-208 limits assumed) above, with F160V counted along it

Binder | WT koff/mutant koff
B2 | 7.4 ratio
B3 | 2.6 ratio
B4 | 1.9 ratio
B5 | 10.1 ratio
B6 | 4 ratio
B7 | 10.1 ratio

target: T2, CD32B (FcγRII-B); test: method not stated at Table 3

Binder | binding relative to wild-type Fc
B4 | 0.92 fold
B5 | 1.07 fold
B6 | 0.4 fold
B7 | 1.38 fold

target: T4, CD16A F158; test: method not stated at Table 3

Binder | binding relative to wild-type Fc
B3 | 1.43 fold
B4 | 1.9 fold
B5 | 5.62 fold
B6 | 2.53 fold
B7 | 8.25 fold

target: T5, CD16A V158; test: method not stated at Table 3

Binder | binding relative to wild-type Fc
B3 | 2.56 fold
B4 | 1.85 fold
B5 | 10.1 fold
B6 | 5.37 fold
B7 | 10.1 fold

target: human CD16A (FcγRIII-A) (human, UniProt P08637 17-208, limits assumed); test: method not stated
Sequence (P08637 17-208 limits assumed): as the sequence (P08637 17-208 limits assumed) above

Binder | fold increase in binding
B8 | 10 fold
